Reference: patent US20230348558A1 (published 2023)

T1: HPV16-E5 peptide on HLA-C*08:02 (human)
T1 peptide: NLDTASTTL

T2: HPV16-E5 peptide on HLA-C*05:01 (human)
T2 peptide: NLDTASTTL

T3: HPV16-E2 peptide on HLA-A*02:01 (human)
T3 peptide: TLQDVSLEVYL

B1: E5-NLD-TCR (TCR, V domains shown)
Valpha: AQKVTQAQTEISVVEKEDVTLDCVYETRDTTYYLFWYKQPPSGELVFLIRRNSFDEQNEISGRYSWNFQKSTSSFNFTITASQVVDSAVYFCALSEGGGSQGNLIFGKGTKLSVKP
Vbeta: GVSQSPRYKVTKRGQDVALRCDPISGHVSLYWYRQALGQGPEFLTYFNYEAQQDKSGLPNDRFSAERPEGSISTLTIQRTEQRDSAMYRCASSPELAGPQETQYFGPGTRLLVL
B2: E2-TLQ-TCR (TCR, V domains shown)
Valpha: AQTVTQSQPEMSVQEAETVTLSCTYDTSESNYYLFWYKQPPSRQMILVIRQEAYKQQNATENRFSVNFQKAAKSFSLKISDSQLGDTAMYFCAFTYGGSQGNLIFGKGTKLSVKP
Vbeta: EPEVTQTPSHQVTQMGQEVILRCVPISNHLYFYWYRQILGQKVEFLVSFYNNEISEKSEIFDDQFSVERPDGSNFTLKIRSTKLEDSAMYFCASRASVGVGTGELFFGEGSRLTVL

Columns and labels:
[1] = molecular target: T1, HPV16-E5 peptide on HLA-C*08:02; assay: cytokine release
[2] = molecular target: T2, HPV16-E5 peptide on HLA-C*05:01; assay: cytokine release
[3] = molecular target: T3, HPV16-E2 peptide on HLA-A*02:01; assay: killing

Binder | binding result [1] | binding result [2] | binding result [3]
B1 | recognises | recognises | 
B2 |  |  | recognises
